Tests used:
CXCR2 = target: T1, CXCR2 (UniProt P25025 1-360, limits assumed); test: indirect ELISA, ONCO P8-CXCR2 complex formation
T1 construct: The receptor preparation used in the ELISA is not described; also called IL-8R
T1 sequence (looked up): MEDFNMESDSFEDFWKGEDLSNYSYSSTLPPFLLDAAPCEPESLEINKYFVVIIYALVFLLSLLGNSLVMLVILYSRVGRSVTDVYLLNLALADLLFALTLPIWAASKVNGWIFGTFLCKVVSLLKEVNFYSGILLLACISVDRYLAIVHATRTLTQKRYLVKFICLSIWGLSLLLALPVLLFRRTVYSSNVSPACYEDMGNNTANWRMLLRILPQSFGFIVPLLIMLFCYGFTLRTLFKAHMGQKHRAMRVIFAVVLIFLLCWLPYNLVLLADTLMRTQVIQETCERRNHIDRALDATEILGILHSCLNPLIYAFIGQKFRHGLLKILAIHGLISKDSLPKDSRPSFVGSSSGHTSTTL

CXCR1 = target: T2, CXCR1 (UniProt P25024 1-350, limits assumed); test: indirect ELISA, ONCO P8-CXCR1 complex formation
T2 construct: The receptor preparation used in the ELISA is not described; also called IL-8R
T2 sequence (looked up): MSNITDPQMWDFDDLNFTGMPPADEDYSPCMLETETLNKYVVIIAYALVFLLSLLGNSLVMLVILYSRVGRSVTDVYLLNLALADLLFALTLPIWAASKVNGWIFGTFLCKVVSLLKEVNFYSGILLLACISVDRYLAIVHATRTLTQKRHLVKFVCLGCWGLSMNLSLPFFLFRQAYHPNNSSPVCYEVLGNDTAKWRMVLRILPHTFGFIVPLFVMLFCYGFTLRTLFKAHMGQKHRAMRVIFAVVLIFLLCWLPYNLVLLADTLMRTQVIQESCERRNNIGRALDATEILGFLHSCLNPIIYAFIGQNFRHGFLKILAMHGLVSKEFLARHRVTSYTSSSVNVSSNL

Kd (CXCR2): 139 nM | Kd (CXCR1): 286 nM
B1: ONCO P-8 (peptide)
chain: GSKELRCQCIRSYSKPFHPKFIKELRVIPASQFCANTEIIVKLSDGRELCLDPKENWVQRVVEKFLKRAENS
notes: also called chemokine receptor antagonistic modified peptide
